Literature values in publication PMC12291208.

What was measured:
[1] = molecular target: Lys92 (UniProt position 174, RGLAYKYADGK); settings: folded protein; Lys92 buried, Lys118 solvent exposed
[2] = molecular target: Lys118 (UniProt position 200, YVYKPKNTHEQ); settings: folded protein; Lys92 buried, Lys118 solvent exposed

| Substance | pKa [1] | pKa [2] |
| --- | --- | --- |
| Staphylococcal nuclease (SNase) I92K variant (Staphylococcus aureus (inferred from 'staphylococcal'); I92K) | 5.2 |  |
| Staphylococcal nuclease (SNase) N118K variant (Staphylococcus aureus (inferred from 'staphylococcal'); N118K) |  | 10.4 |
